Experimental data reported in patent US20180291101A1 (published 2018).
Numbering of substitutions follows the chain as printed.

Tests used:
[1] = molecular target: monomeric His-tagged human FcRn (hFcRn) (JTA) (human) (UniProt P55899); experiment: SPR, IgG amine-coupled, hFcRn (JTA) injected, pH 6.0; second value of the cell (steady-state affinity model)
[2] = molecular target: monomeric His-tagged human FcRn (hFcRn) (JTA) (human) (UniProt P55899); experiment: SPR, IgG amine-coupled, hFcRn (JTA) injected, 1:1 fit, pH 6.0
[3] = molecular target: monomeric His-tagged human FcRn (hFcRn) (JTA) (human) (UniProt P55899); experiment: SPR, IgG amine-coupled, hFcRn (JTA) injected, pH 6.0; first value of the cell (kinetic fit)
[4] = molecular target: hFcRn in hFcRn TG mice (human FCGRT transgene) (human, UniProt P55899 24-365); experiment: cell-based or functional assay
[5] = molecular target: T1, recombinant human FcRn (Sino Biological Inc. Cat. No. CT009-H08H) (human, UniProt P55899 24-297; P61769 21-119); experiment: competition ELISA vs biotinylated human serum IgG, pH 6.0
T1 construct: Bought protein; also called hFcRn (SINO); immobilized FcRn

[6] = molecular target: T1, recombinant human FcRn (Sino Biological …); experiment: competition ELISA vs biotinylated parent murine antibody, pH 6.0
[7] = molecular target: T1, recombinant human FcRn (Sino Biological …); experiment: competition ELISA vs biotinylated parent murine antibody, pH 7.4

Chain of monomeric His-tagged human FcRn (hFcRn) (JTA) (human) (P55899 24-297 limits assumed, chain 1 of 2): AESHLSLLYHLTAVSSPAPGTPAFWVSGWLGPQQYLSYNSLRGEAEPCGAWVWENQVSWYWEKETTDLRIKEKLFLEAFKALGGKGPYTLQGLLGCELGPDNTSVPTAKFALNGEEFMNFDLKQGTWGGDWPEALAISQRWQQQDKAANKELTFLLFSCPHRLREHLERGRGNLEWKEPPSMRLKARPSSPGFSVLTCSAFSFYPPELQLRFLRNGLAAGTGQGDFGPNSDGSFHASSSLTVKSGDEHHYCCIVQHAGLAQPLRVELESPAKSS
Chain of monomeric His-tagged human FcRn (hFcRn) (JTA) (human) (P61769 21-119 limits assumed, chain 2 of 2, further chain): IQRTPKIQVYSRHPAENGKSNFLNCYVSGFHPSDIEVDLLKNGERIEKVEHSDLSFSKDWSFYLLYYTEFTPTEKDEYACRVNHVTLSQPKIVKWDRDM
T1 sequence (P55899 24-297 limits assumed, chain 1 of 2): as the sequence (P55899 24-297 limits assumed, chain 1 of 2) above
T1 sequence (P61769 21-119 limits assumed, chain 2 of 2): as the sequence (P61769 21-119 limits assumed, chain 2 of 2, further chain) above
Chain of hFcRn in hFcRn TG mice (human FCGRT transgene) (P55899 24-365): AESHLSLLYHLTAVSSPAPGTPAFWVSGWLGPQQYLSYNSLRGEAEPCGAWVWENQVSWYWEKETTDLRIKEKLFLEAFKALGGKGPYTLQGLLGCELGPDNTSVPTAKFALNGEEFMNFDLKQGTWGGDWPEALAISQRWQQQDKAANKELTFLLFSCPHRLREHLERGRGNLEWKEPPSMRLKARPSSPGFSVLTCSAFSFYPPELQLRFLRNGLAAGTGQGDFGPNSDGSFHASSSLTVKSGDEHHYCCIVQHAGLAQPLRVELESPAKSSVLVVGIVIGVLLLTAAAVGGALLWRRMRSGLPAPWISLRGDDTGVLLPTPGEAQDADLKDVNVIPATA

How did the Kd [1] turn out when human IgG1 (hIgG1) (antibody) was run?
Its Kd is 1250 nM.

And the koff [2]?
The koff was 0.0824 s⁻¹.

What about the kon [2] of the same molecule?
The kon was 108000 M⁻¹ s⁻¹.

What about the Kd [3] of the same molecule?
The Kd was 763 nM.

For human IgG4 (hIgG4) (antibody), which Kd [1] is on record?
Its Kd is 970 nM.

What about the Kd [3] of the same molecule?
The Kd was 1010 nM.

B1: H3Vκ2 (H3VH1_Vκ2) IgG4 (antibody, V domains shown)
VH: QVQLVQSGAELKKPGASVKLSCKASGYTFTSYGISWVKQATGQGLEWIGEIYPRSGNTYYNEKFKGRATLTADKSTSTAYMELRSLRSEDSAVYFCARSTTVRPPGIWGTGTTVTVSS
VL: DIQMTQSPSSLSASVGDRVTITCKASDHINNWLAWYQQKPGQAPRLLISGATSLETGVPSRFSGSGTGKDYTLTISSLQPEDFATYYCQQYWSTPYTFGGGTKVEIK
For B1, which “plasma concentration of HuLys11 (human IgG1) in hFcRn TG mice after 20 mg/kg” value [4] is on record?
Its value is 3 fold reduction.

B2: VH1_A8/Vκ1 IgG4 (antibody, V domains shown)
VH: B1 VH with R87K, R103S, G106A, I107H
VL: B1 VL with S10Y, P80T
notes: IgG4
For B2, which “average relative IC50 (normalized to parent murine antibody)” value [5] is on record?
Its value is 0.53 ratio.

And the “average relative IC50 (normalized to chimeric parent murine antibody)” value [6]?
Its value is 0.87 ratio.

What about the “average relative IC50 (normalized to chimeric parent murine antibody)” value [7] of the same molecule?
The value was 0.89 ratio.
